Measurements: US7981997B2, “Growth factor which acts through ErbB-4 RTK” (Yeda Research And Development Co., priority 2000, dated 2011)

Columns and labels:
[1] = molecular target: T1, IgB-4 (soluble ErbB-4) (Homo sapiens, UniProt Q15303); experiment: Covalent crosslinking of radiolabeled ligands to soluble ErbB-IgG fusion, cell-free; format: binding
T1 construct: Recombinant soluble extracellular domains of the four ErbB proteins (denoted IgB-1 through 4); made in house; host or cells: HEK-293 human embryonic kidney cells (conditioned medium)
T1 sequence (Q15303 26-651 limits assumed): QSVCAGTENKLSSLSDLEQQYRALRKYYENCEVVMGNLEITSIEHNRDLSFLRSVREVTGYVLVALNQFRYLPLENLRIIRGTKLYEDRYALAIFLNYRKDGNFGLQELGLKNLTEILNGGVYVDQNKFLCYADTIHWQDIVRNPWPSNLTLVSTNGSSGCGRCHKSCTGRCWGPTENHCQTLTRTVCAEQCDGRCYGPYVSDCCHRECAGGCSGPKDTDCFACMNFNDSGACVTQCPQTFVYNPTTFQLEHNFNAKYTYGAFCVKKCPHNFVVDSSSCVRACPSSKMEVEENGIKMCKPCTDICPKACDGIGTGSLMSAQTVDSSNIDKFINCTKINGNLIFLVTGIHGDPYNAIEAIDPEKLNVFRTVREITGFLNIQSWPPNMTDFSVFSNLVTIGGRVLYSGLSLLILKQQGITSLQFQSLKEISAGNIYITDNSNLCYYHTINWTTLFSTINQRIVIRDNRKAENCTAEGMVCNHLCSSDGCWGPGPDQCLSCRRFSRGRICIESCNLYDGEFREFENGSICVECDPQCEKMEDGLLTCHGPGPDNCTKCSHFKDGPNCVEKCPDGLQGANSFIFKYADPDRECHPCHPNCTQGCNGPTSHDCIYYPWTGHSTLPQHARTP
Procedure: The four soluble forms of ErbB proteins, in the form of IgG fusions (denoted IgB-1 through 4), were separately incubated with the indicated radiolabeled growth factors. Where indicated (lower panel), an excess (100-fold) of unlabeled NRG-4 was co-incubated with the labeled ligand. Following 2 hours at 22° C., the covalent crosslinking reagent bis(sulfosuccinimdyl)-suberate (BS^3) was added (1 mM) and 45 minutes later the ligand-receptor complexes were immunoprecipitated with agarose-immobilized protein-A beads. Arrows mark the locations of monomeric (M) and dimeric (D) receptor complexes.
Growth factors were labeled with Iodogen (Pierce) as described (Karunagaran et al., 1995). Chemical crosslinking to Chinese Hamster Ovary (CHO) cells engineered to express different ErbB combinations have been performed essentially as described (Tzahar et al., 1996). Briefly, radiolabeled ligands (at 100 ng/ml) were incubated for 2 hours with cell monolayers at 4 C. The chemical crosslinking agent BS^3 (1 mM) was then added and the cells were further incubated for 45 minutes at 22 C. Mouse antibodies were first coupled to rabbit anti-mouse IgG and to protein A-Sepharose beads, and then they were incubated with cell extracts for 2 hours at 4 C. Immunoprecipitated complexes were then washed three times with ice-cold SBN buffer (1% NP-40; 150 mM NaCl; 10% Glycerol; 1 mM EGTA, in 50 mM Tris-HCl, pH 7.4; 1 ml per wash) prior to heating (5 minutes at 95 C) in gel sample buffer, resolution by gel electrophoresis, transfer to nitrocellulose and autoradiography. For crosslinking with IgBs, after co-incubation of IgB-containing conditioned media with radiolabeled ligands, complexes were immunoprecipitated directly with Sepharose-protein A beads. For ligand displacement analyses, cell monolayers were washed once with binding buffer, and then incubated for 2 hours at 4 C with radiolabeled […] (5 ng/ml) and various concentrations of unlabeled ligands, as indicated. Non-specific binding was determined in the presence of a 100-fold molar excess of the unlabeled ligani. Cells were then washed, lysed in a solution containing 0.1 M NaOH and 0.1% SDS, and radioactivity determined by use of a gamma counter.
In the first assay, binding studies in a cell-free system were performed with recombinant soluble forms of all four ErbB proteins. The soluble proteins, denoted IgB-1 through 4, consist of a dimeric fusion between the extracellular domain of the corresponding ErbB and the Fc portion of a human immunoglobulin G (Chen et al., 1996).

[2] = molecular target: T2, ErbB-4 co-expressed with ErbB-2 (Homo sapiens, UniProt Q15303); experiment: Covalent crosslinking to CHO cells co-transfected with ErbB-4 and ErbB-2; format: binding; conditions: precipitation with anti-ErbB-2 antibodies
T2 construct: expressed in transfected cells; host or cells: CHO (Chinese Hamster Ovary) cells, transient co-transfection
Procedure: CHO cells were transfected with vectors directing expression of the indicated ErbB proteins or their combinations. Two days later cell monolayers were incubated with either ^125I-NRG-1β or ^125I-NRG-4 (EGF-like domains, each at 100 ng/ml). Following 2 hours at 4° C., the covalent crosslinking reagent bis(sulfosuccinimdyl)-suberate (BS^3) was added (1 mM final concentration) and cell extracts prepared after an additional 45 minutes of incubation. The indicated ErbB proteins were then immunoprecipitated with mouse monoclonal antibodies, and the complexes resolved by gel electrophoresis and autoradiography. Arrows mark the locations of monomeric (M) and dimeric (D) receptor complexes.
Growth factors were labeled with Iodogen (Pierce) as described (Karunagaran et al., 1995). Chemical crosslinking to Chinese Hamster Ovary (CHO) cells engineered to express different ErbB combinations have been performed essentially as described (Tzahar et al., 1996). Briefly, radiolabeled ligands (at 100 ng/ml) were incubated for 2 hours with cell monolayers at 4 C. […] Non-specific binding was determined in the presence of a 100-fold molar excess of the unlabeled ligani. Cells were then washed, lysed in a solution containing 0.1 M NaOH and 0.1% SDS, and radioactivity determined by use of a gamma counter. […]

B1: NRG-4: synthetic refolded mouse EGF-like domain of NRG-4 (residues 4 to 50, SEQ ID NO:2) (peptide, listed as Mus musculus)
chain: MPTDHEQPCGPRHRSFCLNGGICYVIPTIPSPFCRCIENYTGARCEEVFLPSSSIPSESNLSAAFVVLAVLLTLTIAALCFLCRKGHLQRASSVQCEISLVETNNTRTRHSHREH
Q: With B1 as the molecule, how does the “binding to IgB-4 (covalent crosslinking signal)” value ([1]; 125I-labeled ligand, BS3 crosslinking) read?
A: Its value is “only weakly”.

Q: What about the “displacement of the radioactive ligand from IgB-4 by unlabeled NRG-4” value ([1]; unlabeled NRG-4 at 100-fold molar excess) of the same molecule?
A: The value was “efficient displacement”.

Q: What about the “heterodimers of ErbB-4 with ErbB-2” value [2] of the same molecule?
A: The value was “existence of NRG-4-promoted heterodimers”.
